{"source": "patent US20170000909A1", "about": "“ENZYME DIRECTED ASSEMBLY OF PARTICLE THERANOSTICS” (The Regents of the University of California, priority 2011, published 2017)", "target": "T1, MMP-9 (Homo sapiens, UniProt P14780)", "T1 construct": "purchased Calbiochem", "T1 sequence (P14780 107-707 limits assumed)": "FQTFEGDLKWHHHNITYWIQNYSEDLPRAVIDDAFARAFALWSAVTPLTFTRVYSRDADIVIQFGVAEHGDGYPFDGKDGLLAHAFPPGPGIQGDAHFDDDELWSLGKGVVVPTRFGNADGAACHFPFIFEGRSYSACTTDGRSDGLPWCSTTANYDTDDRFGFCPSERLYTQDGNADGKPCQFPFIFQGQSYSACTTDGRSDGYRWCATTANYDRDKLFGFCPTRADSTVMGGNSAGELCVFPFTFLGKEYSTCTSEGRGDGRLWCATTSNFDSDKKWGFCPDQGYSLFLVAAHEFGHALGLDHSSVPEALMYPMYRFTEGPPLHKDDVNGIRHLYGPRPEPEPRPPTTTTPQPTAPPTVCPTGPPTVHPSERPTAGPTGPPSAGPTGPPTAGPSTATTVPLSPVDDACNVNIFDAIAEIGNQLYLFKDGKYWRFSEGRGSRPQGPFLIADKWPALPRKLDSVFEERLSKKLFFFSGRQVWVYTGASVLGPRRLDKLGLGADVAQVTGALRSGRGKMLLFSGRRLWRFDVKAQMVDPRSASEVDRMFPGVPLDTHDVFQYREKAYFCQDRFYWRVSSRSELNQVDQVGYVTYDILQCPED", "test": "MMP-9 cleavage efficiency assay (RP-HPLC)", "assay_type": "biochemical", "details": "120 μM, MMP-9 24 hrs, disappearance of peak at 29 minutes", "experimental": "To 5 μL of enzyme was added 0.4 μL of a 24 mM π-aminophenyl mercuric acetate solution in freshly prepared 0.1 M NaOH. The enzyme solution was heated at 37° C. for 2 hrs prior to use.\n120 μM of M1 (with respect to peptide) and 120 μM of Peptide-1 were treated with MMP-9 (100 μU, 1.25 μL) for 24 hrs. The control was performed using 120 μM of Peptide-1 without treatment with MMP-9. These samples were then analyzed by RP-HPLC following inactivation of MMP-9 at 65° C. for 20 mins (FIG. 21A). Peak A is the intact, full length Peptide-1 without treatment with MMP-9, and Peak B is the large fragment of Peptide-1 cleaved by MMP-9 as confirmed by MALDI-MS shown in FIG. 21B, left.", "note": "Where no end group is shown, it is not given here.", "data": [{"sequence": "GPLGLAGKWAAAAKAAAAK [Peptide-1]", "values": [{"measurement": "MMP-9 cleavage efficiency", "value": "quantitative"}]}]}
